From paper PMC3274598 (Analytical Biochemistry, 2011)

T1: RAD9 peptide (Homo sapiens, UniProt Q99638)
T1 chain: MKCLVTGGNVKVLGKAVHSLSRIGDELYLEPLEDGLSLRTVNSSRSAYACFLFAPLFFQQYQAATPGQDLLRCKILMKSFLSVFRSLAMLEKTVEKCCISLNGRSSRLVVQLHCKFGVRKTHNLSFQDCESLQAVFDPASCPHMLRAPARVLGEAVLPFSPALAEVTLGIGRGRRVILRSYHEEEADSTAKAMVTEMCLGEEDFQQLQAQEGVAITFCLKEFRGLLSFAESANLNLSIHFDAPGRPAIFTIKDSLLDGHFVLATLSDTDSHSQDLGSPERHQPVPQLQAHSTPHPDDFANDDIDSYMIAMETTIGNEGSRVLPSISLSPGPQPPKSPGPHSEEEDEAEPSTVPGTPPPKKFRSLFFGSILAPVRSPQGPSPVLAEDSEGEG

T2: ATRIP peptide (Homo sapiens, UniProt Q8WXE1)
T2 chain: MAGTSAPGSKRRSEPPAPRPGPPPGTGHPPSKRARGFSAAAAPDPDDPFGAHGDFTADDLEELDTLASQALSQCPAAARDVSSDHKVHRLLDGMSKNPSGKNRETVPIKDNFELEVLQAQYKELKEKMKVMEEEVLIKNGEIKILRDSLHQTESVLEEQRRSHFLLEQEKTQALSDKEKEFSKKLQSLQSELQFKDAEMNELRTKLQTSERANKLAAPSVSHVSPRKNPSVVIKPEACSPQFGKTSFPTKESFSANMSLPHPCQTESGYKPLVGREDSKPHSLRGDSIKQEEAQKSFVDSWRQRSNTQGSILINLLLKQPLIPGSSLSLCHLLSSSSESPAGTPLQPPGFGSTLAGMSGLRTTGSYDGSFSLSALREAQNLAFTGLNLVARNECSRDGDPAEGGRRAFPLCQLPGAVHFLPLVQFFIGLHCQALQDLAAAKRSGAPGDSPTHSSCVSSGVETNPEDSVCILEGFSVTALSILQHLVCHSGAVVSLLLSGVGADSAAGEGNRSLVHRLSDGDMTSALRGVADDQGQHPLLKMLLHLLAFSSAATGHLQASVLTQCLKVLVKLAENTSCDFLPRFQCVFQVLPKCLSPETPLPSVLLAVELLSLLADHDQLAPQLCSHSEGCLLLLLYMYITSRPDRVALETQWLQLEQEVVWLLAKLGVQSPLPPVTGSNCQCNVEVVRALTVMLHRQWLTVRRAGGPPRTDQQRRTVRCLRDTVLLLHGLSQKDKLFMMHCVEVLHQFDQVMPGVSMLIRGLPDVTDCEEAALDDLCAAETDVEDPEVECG


How the values were obtained:
RAD9 peptide = molecular target: T1, RAD9 peptide; test: anisotropy
ATRIP peptide = molecular target: T2, ATRIP peptide; test: NMR
[1] = molecular target: N-terminal OB-fold domain of RPA70 (RPA70N) (human, UniProt P27694 1-120); test: fluorescence polarisation

Binder | Kd (RAD9 peptide) | Kd (ATRIP peptide) | IC50 [1]
RPA70N 70N (protein) MVGQLSEGAIAAIMQKGDTNIKPILQVINIRPITTGNSPPRYRLLMSDGLNTLSSFMLATQLNPLVEEEQLSSNCVCQIHRFIVNTLKDGRRVVILMELEVLKSAEAVGVKIGNPVPYNE | 51 µM | 48 µM | –
Ac-DFANDDIDSYMIAME-NH2 [RAD9 peptide (Ac-DFANDDIDSYMIAME-NH2)] | – | – | 102 ± 13.6 µM
